{"source": "the supplement of paper PMC10567573", "parents": {"B1": {"name": "C10orf62 (parent)", "chain": "TSECPSDKDKSPESHKAKNESWIK"}}}
{"variants_of": "B1", "experiment": "protein stability index of a GFP-peptide fusion (GPS, HEK-293T) (PSI 1-6); higher = more stable", "conditions": "c terminus: a fixed tail appended"}
{"variant": "TSECPSDKDKSPESHKEKNESWIK", "note": "[A17E]", "protein stability index": 3.88}
{"variant": "TSECPSDKDKSPESHKRKNESWIK", "note": "[A17R]", "protein stability index": 2.6}
{"variant": "TSECPSDKDKSPESHKGKNESWIK", "note": "[A17G]", "protein stability index": 3.27}
{"variant": "TSECPSDKDKSPESHKQKNESWIK", "note": "[A17Q]", "protein stability index": 3.64}
{"variant": "TSECPSDKDKSPESHKCKNESWIK", "note": "[A17C]", "protein stability index": 3.6}
{"variant": "TSECPSDKDKSPESHKIKNESWIK", "note": "[A17I]", "protein stability index": 4.17}
{"variant": "TSECPSDKDKSPESHKLKNESWIK", "note": "[A17L]", "protein stability index": 3.64}
{"variant": "TSECPSDKDKSPESHKKKNESWIK", "note": "[A17K]", "protein stability index": 2.93}
{"variant": "TSECPSDKDKSPESHKWKNESWIK", "note": "[A17W]", "protein stability index": 3.5}
{"variant": "TSECPSDKDKSPESHKVKNESWIK", "note": "[A17V]", "protein stability index": 3.37}
{"variant": "TSECPSDKDKSPESHKFKNESWIK", "note": "[A17F]", "protein stability index": 3.42}
{"variant": "TSECPSDKDKSPESHKYKNESWIK", "note": "[A17Y]", "protein stability index": 3.5}
{"variant": "TSECPSDKDKSPESHKPKNESWIK", "note": "[A17P]", "protein stability index": 3.07}
{"variant": "TSECPSDKDKSPESHKMKNESWIK", "note": "[A17M]", "protein stability index": 2.93}
{"variant": "TSECPSDKDKSPESHKTKNESWIK", "note": "[A17T]", "protein stability index": 3.14}
{"variant": "TSECPSDKDKSPESHKHKNESWIK", "note": "[A17H]", "protein stability index": 3.29}
{"variant": "TSECPSDKDKSPESHKDKNESWIK", "note": "[A17D]", "protein stability index": 3.88}
{"variant": "TSECPSDKDKSPESHKSKNESWIK", "note": "[A17S]", "protein stability index": 3.48}
{"variant": "TSECPSDKDKSPESHKNKNESWIK", "note": "[A17N]", "protein stability index": 3.56}
{"variant": "TSECPSDKDKSPEYHKAKNESWIK", "note": "[S14Y]", "protein stability index": 3}
{"variant": "TSECPSDKDKSPEEHKAKNESWIK", "note": "[S14E]", "protein stability index": 4.58}
{"variant": "TSECPSDKDKSPEVHKAKNESWIK", "note": "[S14V]", "protein stability index": 3.98}
{"variant": "TSECPSDKDKSPEDHKAKNESWIK", "note": "[S14D]", "protein stability index": 4.49}
{"variant": "TSECPSDKDKSPEQHKAKNESWIK", "note": "[S14Q]", "protein stability index": 4.13}
{"variant": "TSECPSDKDKSPEAHKAKNESWIK", "note": "[S14A]", "protein stability index": 3.7}
{"variant": "TSECPSDKDKSPERHKAKNESWIK", "note": "[S14R]", "protein stability index": 3.82}
{"variant": "TSECPSDKDKSPEKHKAKNESWIK", "note": "[S14K]", "protein stability index": 2.82}
{"variant": "TSECPSDKDKSPEPHKAKNESWIK", "note": "[S14P]", "protein stability index": 3.2}
{"variant": "TSECPSDKDKSPEGHKAKNESWIK", "note": "[S14G]", "protein stability index": 3.5}
{"variant": "TSECPSDKDKSPELHKAKNESWIK", "note": "[S14L]", "protein stability index": 3.48}
{"variant": "TSECPSDKDKSPETHKAKNESWIK", "note": "[S14T]", "protein stability index": 3.41}
{"variant": "TSECPSDKDKSPEWHKAKNESWIK", "note": "[S14W]", "protein stability index": 4}
{"variant": "TSECPSDKDKSPEMHKAKNESWIK", "note": "[S14M]", "protein stability index": 3.34}
{"variant": "TSECPSDKDKSPEHHKAKNESWIK", "note": "[S14H]", "protein stability index": 3.71}
{"variant": "TSECPSDKDKSPENHKAKNESWIK", "note": "[S14N]", "protein stability index": 3.95}
{"variant": "TSECPSDKDKSPECHKAKNESWIK", "note": "[S14C]", "protein stability index": 3.52}
{"variant": "TSECPSDKDKSPEFHKAKNESWIK", "note": "[S14F]", "protein stability index": 3.89}
{"variant": "TSECPSDKDKSPEIHKAKNESWIK", "note": "[S14I]", "protein stability index": 3.66}
{"variant": "TSECPSDKDKSPYSHKAKNESWIK", "note": "[E13Y]", "protein stability index": 2.98}
{"variant": "TSECPSDKDKSPWSHKAKNESWIK", "note": "[E13W]", "protein stability index": 2.17}
{"variant": "TSECPSDKDKSPESHKAANESWIK", "note": "[K18A]", "protein stability index": 3.67}
{"variant": "TSECPSDKDKSPESHKAENESWIK", "note": "[K18E]", "protein stability index": 3.83}
{"variant": "TSECPSDKDKSPESHKAPNESWIK", "note": "[K18P]", "protein stability index": 3.74}
{"variant": "TSECPSDKDKSPESHKALNESWIK", "note": "[K18L]", "protein stability index": 4.18}
{"variant": "TSECPSDKDKSPESHKAINESWIK", "note": "[K18I]", "protein stability index": 3.01}
{"variant": "TSECPSDKDKSPESHKAFNESWIK", "note": "[K18F]", "protein stability index": 4.09}
{"variant": "TSECPSDKDKSPESHKADNESWIK", "note": "[K18D]", "protein stability index": 3.84}
{"variant": "TSECPSDKDKSPESHKARNESWIK", "note": "[K18R]", "protein stability index": 3.51}
{"variant": "TSECPSDKDKSPESHKAMNESWIK", "note": "[K18M]", "protein stability index": 3.77}
{"variant": "TSECPSDKDKSPESHKAHNESWIK", "note": "[K18H]", "protein stability index": 4.03}
{"variant": "TSECPSDKDKSPESHKASNESWIK", "note": "[K18S]", "protein stability index": 4.15}
{"variant": "TSECPSDKDKSPESHKACNESWIK", "note": "[K18C]", "protein stability index": 4.37}
{"variant": "TSECPSDKDKSPESHKAGNESWIK", "note": "[K18G]", "protein stability index": 3.9}
{"variant": "TSECPSDKDKSPESHKAQNESWIK", "note": "[K18Q]", "protein stability index": 3.9}
{"variant": "TSECPSDKDKSPESHKANNESWIK", "note": "[K18N]", "protein stability index": 3.6}
{"variant": "TSECPSDKDKSPESHKATNESWIK", "note": "[K18T]", "protein stability index": 4.02}
{"variant": "TSECPSDKDKSPESWKAKNESWIK", "note": "[H15W]", "protein stability index": 3.33}
{"variant": "TSECPSDKDKSPESNKAKNESWIK", "note": "[H15N]", "protein stability index": 2.69}
{"variant": "TSECPSDKDKSPESYKAKNESWIK", "note": "[H15Y]", "protein stability index": 3.35}
{"variant": "TSECPSDKDKSPESLKAKNESWIK", "note": "[H15L]", "protein stability index": 3.48}
{"variant": "TSECPSDKDKSPESMKAKNESWIK", "note": "[H15M]", "protein stability index": 2.83}
{"variant": "TSECPSDKDKSPESVKAKNESWIK", "note": "[H15V]", "protein stability index": 3.88}
{"variant": "TSECPSDKDKSPESIKAKNESWIK", "note": "[H15I]", "protein stability index": 4.07}
{"variant": "TSECPSDKDKSPESPKAKNESWIK", "note": "[H15P]", "protein stability index": 3.92}
{"variant": "TSECPSDKDKSPESDKAKNESWIK", "note": "[H15D]", "protein stability index": 3.92}
{"variant": "TSECPSDKDKSPESAKAKNESWIK", "note": "[H15A]", "protein stability index": 4.12}
{"variant": "TSECPSDKDKSPESRKAKNESWIK", "note": "[H15R]", "protein stability index": 3.31}
{"variant": "TSECPSDKDKSPESSKAKNESWIK", "note": "[H15S]", "protein stability index": 3.61}
{"variant": "TSECPSDKDKSPESGKAKNESWIK", "note": "[H15G]", "protein stability index": 3.69}
{"variant": "TSECPSDKDKSPESFKAKNESWIK", "note": "[H15F]", "protein stability index": 3}
{"variant": "TSECPSDKDKSPESCKAKNESWIK", "note": "[H15C]", "protein stability index": 3.2}
{"variant": "TSECPSDKDKSPESTKAKNESWIK", "note": "[H15T]", "protein stability index": 2.99}
{"variant": "TSECPSDKDKSPESEKAKNESWIK", "note": "[H15E]", "protein stability index": 3.84}
{"variant": "TSECPSDKDKSPESQKAKNESWIK", "note": "[H15Q]", "protein stability index": 3.37}
{"variant": "TSECPSDKDKSPESKKAKNESWIK", "note": "[H15K]", "protein stability index": 4.06}
{"variant": "TSECPSDKDKSPESHCAKNESWIK", "note": "[K16C]", "protein stability index": 3.75}
{"variant": "TSECPSDKDKSPESHMAKNESWIK", "note": "[K16M]", "protein stability index": 3.85}
{"variant": "TSECPSDKDKSPESHYAKNESWIK", "note": "[K16Y]", "protein stability index": 3.6}
{"variant": "TSECPSDKDKSPESHVAKNESWIK", "note": "[K16V]", "protein stability index": 3.95}
{"variant": "TSECPSDKDKSPESHIAKNESWIK", "note": "[K16I]", "protein stability index": 3.92}
{"variant": "TSECPSDKDKSPESHGAKNESWIK", "note": "[K16G]", "protein stability index": 3.58}
{"variant": "TSECPSDKDKSPESHQAKNESWIK", "note": "[K16Q]", "protein stability index": 3.29}
{"variant": "TSECPSDKDKSPESHPAKNESWIK", "note": "[K16P]", "protein stability index": 4.62}
{"variant": "TSECPSDKDKSPESHWAKNESWIK", "note": "[K16W]", "protein stability index": 3.33}
{"variant": "TSECPSDKDKSPESHSAKNESWIK", "note": "[K16S]", "protein stability index": 3.79}
{"variant": "TSECPSDKDKSPESHNAKNESWIK", "note": "[K16N]", "protein stability index": 3.67}
{"variant": "TSECPSDKDKSPESHLAKNESWIK", "note": "[K16L]", "protein stability index": 3.37}
{"variant": "TSECPSDKDKSPESHHAKNESWIK", "note": "[K16H]", "protein stability index": 3.8}
{"variant": "TSECPSDKDKSPESHFAKNESWIK", "note": "[K16F]", "protein stability index": 3.85}
{"variant": "TSECPSDKDKSPESHRAKNESWIK", "note": "[K16R]", "protein stability index": 3.02}
{"variant": "TSECPSDKDKSPESHDAKNESWIK", "note": "[K16D]", "protein stability index": 4.2}
{"variant": "TSECPSDKDKSPESHEAKNESWIK", "note": "[K16E]", "protein stability index": 4.94}
{"variant": "TSECPSDKDKSPESHTAKNESWIK", "note": "[K16T]", "protein stability index": 4.35}
{"variant": "TSECPSDKDKSPESHAAKNESWIK", "note": "[K16A]", "protein stability index": 4.49}
